Data as given in US6849441.

These substances were tested against protease TCES (hyperthermostable protease derived from Thermococcus celer), enzyme preparation (Thermococcus celer) (assay: cell-based or functional assay).
protease TCES (hyperthermostable protease derived from Thermococcus celer), enzyme preparation (Thermococcus celer), sequence (chain, as listed by the source limits assumed): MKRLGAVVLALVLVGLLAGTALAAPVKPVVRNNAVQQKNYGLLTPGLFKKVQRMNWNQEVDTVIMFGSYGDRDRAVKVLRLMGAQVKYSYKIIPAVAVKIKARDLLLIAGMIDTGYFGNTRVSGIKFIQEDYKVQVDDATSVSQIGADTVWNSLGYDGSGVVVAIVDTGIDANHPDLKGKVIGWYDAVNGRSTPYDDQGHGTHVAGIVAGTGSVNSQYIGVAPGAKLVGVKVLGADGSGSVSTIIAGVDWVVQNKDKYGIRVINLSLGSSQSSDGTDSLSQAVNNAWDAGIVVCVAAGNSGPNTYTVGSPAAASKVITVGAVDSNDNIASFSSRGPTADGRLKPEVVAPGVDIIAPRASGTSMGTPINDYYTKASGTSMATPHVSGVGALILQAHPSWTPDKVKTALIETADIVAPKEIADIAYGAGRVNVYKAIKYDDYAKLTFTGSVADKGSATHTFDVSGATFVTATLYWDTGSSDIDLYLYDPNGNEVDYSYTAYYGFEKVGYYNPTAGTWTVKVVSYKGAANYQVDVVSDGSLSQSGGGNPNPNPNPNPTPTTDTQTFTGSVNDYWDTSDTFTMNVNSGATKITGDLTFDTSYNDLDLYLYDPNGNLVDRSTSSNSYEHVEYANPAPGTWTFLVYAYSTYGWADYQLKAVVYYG

Row | enzyme activity compared with control without reagent, after treatment at 37° C. for 30 minutes with 1 mM reagent [%] | Substance
1 | 105 | Pepstatin (peptide)
2 | 104 | Leupeptin (peptide)
3 | 19 | Antipain (peptide)
4 | 0 | Chymostatin (peptide)
